For the assay, the target named is mouse HGF receptor c-Met (endogenous in mouse hepatocytes and liver) (mouse) (UniProt P16056). The assay is described as follows: cell-based or functional assay.

“full-length mouse MERMUC overexpressed in MERMUC-Tg mice (from UniProt Q8BUE7 22-656)”: the ratio of liver weight to body weight after transient overexpression of human HGF was 1.2 times.

These data come from US20050113284A1, “Drug for regenerating tissue and vessel and method therefor” (priority 2001, published 2005).
